Numbering of substitutions follows the chain as printed. Read-outs that look alike come from different tables or passages of the source.
B1: S009-F3.7.3 (antibody, human IgG1, kappa, V domains shown)
VH: EVNFEESGGGLVQPGGSMKLSCVASGFTFSNYWMNWVRQSPEKGLEWVAQIRLKSDNYATHYAESVKGRFTISRDDFKSSVYLQMNNLRAEDTGIYYCTVGTGGYWGQGTTLTVSS
VL: DIVLTQSPASLAMSLGKRATISCRASESVSIVGTNVIHWFQQKPGQPPKLLIYHASNLETGVPARFSGSGSGTDFTLTIDPVEEDDVAIYHCLQSRKIPWTFGGGTKLEIKR
notes: human-murine chimeric antibody, human IgG1/kappa constant regions
B2: S009-F3.16.1 (antibody, human IgG1, kappa, V domains shown)
VH: B1 VH with N3K, T71S, F77S, T99S
VL: B1 VL with M13L, L15P, V32I, N35D, G72R, H91Y
notes: as for B1
B3: S009-F3.23.1 (antibody, human IgG1, kappa, V domains shown)
VH: QVQLQQSGADLVRPGASVTLSCKASGYTFTDYEMHWVKQTPVHGLEWIGAIDPETGDTVYNQNFKGKAILTADKSSSTAYMELRSLTSEDSAVYYCTRYGYDWGWGQGTTLTVSS
VL: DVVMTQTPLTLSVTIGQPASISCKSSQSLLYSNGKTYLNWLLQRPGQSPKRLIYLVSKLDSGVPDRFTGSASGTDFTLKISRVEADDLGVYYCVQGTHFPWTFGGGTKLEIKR
notes: as for B1
B4: S009-F3.38.10 (antibody, human IgG1, kappa, V domains shown)
VH: EVQLQQSGPVLVKPGASVKMSCEASGYIFTDYYMNWVKKSHGKSLEWIGVINPKNGVISHNQKFKGKATLTVDKSSNTAYMELSSLTSEDSAVYYCANYGSRFYAMDYWGQGTSVTVSS
VL: DVVMTQTPLSLPVSLGDQASISCRSSQSLIHSDGNTYLQWYLQKSGQSPKLLIYKVSNRFSGVPDRFSGSGSGTDFTLKISRVETEDLGVYFCSQTTHVPFTFGSGTKLEIKR
notes: as for B1
B5: S009-F3.45.21 (antibody, human IgG1, kappa, V domains shown)
VH: DVQLQESGPGLVKPSQSLSLTCSVTGDSITSGYYWNWIRQFPGNKLEWMGFIRFDGTNNYNPSLKNRISITRDTSKNQFFLKLNSVTTEDTATYYCAREGSYAPAWFAYWGQGTLVTVSA
VL: QIVLTQSPAIMSASPGEKVTMTCSASSSLSYMYWYQQKPGSSPRLLIYDTSNLASGVPVRFSGSGSGTSYSLTISRMEAEDAATYYCQQWSSYPPTFGGGTKLEIKR
notes: as for B1
B6: S009-F3.51.8 (antibody, human IgG1, kappa, V domains shown)
VH: QVQLQQSGAELVRPGASVTLSCKASGYTFTDYEMHWVKQTPVHGLEWIGGFDPETGGTAHNQKFKGKAILTADKSSSTAYMELRSLTSEDSAVYYCSNYGSIWGDCWGQGTSVTVSS
VL: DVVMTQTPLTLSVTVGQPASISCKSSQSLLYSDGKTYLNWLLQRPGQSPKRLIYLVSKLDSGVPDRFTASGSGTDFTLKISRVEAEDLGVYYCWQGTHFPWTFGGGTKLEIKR
notes: as for B1
B7: S009-F3-63.5 (antibody, human IgG1, kappa, V domains shown)
VH: QVQLQQSGAELVRPGASVTLSCKASGYTFTDYEMHWVKQTPVHGLEWIGGIDPETGDTAYNQQFKGKAILTADRSSSTAYMELRSLTSEDSAVYYCTNYASSREDYWGQGTTLTVSS
VL: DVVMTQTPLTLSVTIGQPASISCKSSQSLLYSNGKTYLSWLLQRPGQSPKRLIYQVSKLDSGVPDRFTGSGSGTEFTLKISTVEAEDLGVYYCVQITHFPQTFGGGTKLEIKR
notes: as for B1
B8: S009-F3.74.20 (antibody, human IgG1, kappa, V domains shown)
VH: RVQLQQSGAELVRPGASVTLSCKASGYTFTDSEMHWVKQTPVHGLEWIGAIDPEIDGTAYNQNFRDKAILTADKSSSTAYMELRSLTSEDSAVYYCTTYFGSGYGYFDVWGTGTTVTVSS
VL: DVVMTQTPLSLSVSLGDQASISCRSSQSLVYSNGNTYLHWFLQKPGQSPKLLIYKVSNRFSGVPDRFSGSGSGTDFTLKINRVEAEDLGVYFCSQSTHIPFTFGAGTKLELKR
notes: as for B1
B9: S009-F3.80.22 (antibody, human IgG1, kappa, V domains shown)
VH: QVQLQQSGAELVRPGASVTLSCKASGYTFTDYEIHWVKQTPVHGLEWIGAFDPEIGGSAYNQKFKDRATLTADKSSSTAYMELHSLTAEDSAVYYCTDYYGSSSGYFDVWGTGTTVTVSS
VL: B4 VL with I30E, S32N, D33N, Q39H, Y41F, Q43H, S45P, T85A, T96S
notes: as for B1
B10: Tab106 (YP218, hIgG1) (antibody, V domains shown)
VH: QQQLEESGGGLVKPEGSLTLTCKASGFDLGFYFYACWVRQAPGKGLEWIACIYTAGSGSTYYASWAKGRFTISKASSTTVTLQMTSLAAADTATYFCARSTANTRSTYYLNLWGPGTLVTVSS
VL: DVVMTQTPASVSEPVGGTVTIKCQASQRISSYLSWYQQKPGQRPKLLIFGASTLASGVPSRFKGSGSGTEYTLTISDLECADAATYYCQSYAYFDSNNWHAFGGGTEVVVRT
notes: Control antibody; also called YP218 human IgG1 antibody

Experiments:
[1] = target: T1, human MSLN protein endogenously expressed on OVCAR3 tumor cells (human, UniProt Q13421 296-598); assay: FACS on OVCAR3 cells
T1 construct: whole, on cells; Endogenous target on OVCAR3 cells; kept apart from the recombinant full-length construct; also called mesothelin

[2] = target: T2, human MSLN full-length protein (NCBI: AAH09272.1) expressed on HEK293T-hMSLN-B8 cells (human, UniProt Q13421 296-598); assay: FACS on HEK293T-hMSLN-B8 cells
T2 construct: Whole encoded precursor

[3] = target: T3, human MSLN-R3 protein (Met487-Ser606 of NCBI AAH09272.1) expressed on HEK293T-hMSLN-R3 cells (human, UniProt Q13421 487-606); assay: FACS on HEK293T-hMSLN-R3 cells
T3 construct: also called Region3

[4] = target: T4, monkey MSLN full-length protein (NCBI: XP_028696439.1) expressed on HEK293T-monkey MSLN cells (monkey); assay: FACS on HEK293T-monkey MSLN cells
T4 construct: Whole encoded precursor
T4 chain: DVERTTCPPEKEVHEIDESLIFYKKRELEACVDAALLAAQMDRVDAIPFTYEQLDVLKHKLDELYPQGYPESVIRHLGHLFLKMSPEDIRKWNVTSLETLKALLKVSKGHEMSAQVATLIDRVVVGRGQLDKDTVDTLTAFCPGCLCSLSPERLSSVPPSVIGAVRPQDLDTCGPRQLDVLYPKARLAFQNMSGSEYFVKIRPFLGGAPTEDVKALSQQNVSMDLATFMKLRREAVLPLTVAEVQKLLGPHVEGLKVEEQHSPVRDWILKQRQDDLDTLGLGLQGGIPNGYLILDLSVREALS

[5] = target: T3, human MSLN-R3 protein (Met487-Ser606 of …); assay: FACS on HEK293T-hMSLN-R3 cells; remark: listed apart in the source
[6] = target: T3, human MSLN-R3 protein (Met487-Ser606 of …); assay: FACS on HEK293T-hMSLN-R3 cells; remark: listed apart in the source

T3 sequence (Q13421 495-614): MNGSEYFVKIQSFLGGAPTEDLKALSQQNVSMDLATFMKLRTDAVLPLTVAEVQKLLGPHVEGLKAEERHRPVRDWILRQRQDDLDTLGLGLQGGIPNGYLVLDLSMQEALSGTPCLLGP
T1 sequence (Q13421 other isoform, or with tags, fused parts or gaps): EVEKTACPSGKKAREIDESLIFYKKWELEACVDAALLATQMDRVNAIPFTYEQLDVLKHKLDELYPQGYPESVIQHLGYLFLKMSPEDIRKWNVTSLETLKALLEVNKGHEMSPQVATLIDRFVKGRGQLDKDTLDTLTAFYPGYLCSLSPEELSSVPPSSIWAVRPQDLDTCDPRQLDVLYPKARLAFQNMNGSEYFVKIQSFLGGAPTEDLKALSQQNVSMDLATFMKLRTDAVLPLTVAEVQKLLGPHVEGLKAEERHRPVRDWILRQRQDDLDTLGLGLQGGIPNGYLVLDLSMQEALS
T2 sequence (Q13421 other isoform, or with tags, fused parts or gaps limits assumed): as the sequence (Q13421 other isoform, or with tags, fused parts or gaps) above, with R14P counted along it

| Binder | EC50 [1] [nM] | Maximum mean fluorescence intensity [1] | EC50 [2] [nM] | Maximum mean fluorescence intensity [2] | EC50 [3] [nM] | Maximum mean fluorescence intensity [3] | Maximum mean fluorescence intensity [4] | EC50 [4] [nM] | binding result [4] | binding result [3] | EC50 [5] [nM] | Maximum mean fluorescence intensity [5] | EC50 [6] [nM] | Maximum mean fluorescence intensity [6] |
| --- | --- | --- | --- | --- | --- | --- | --- | --- | --- | --- | --- | --- | --- | --- |
| B1 | 1.94 | 3700 | 2.25 | 88800 | 0.72 | 7920 | 7100 | – | – | – | – | – | – | – |
| B2 | 1.61 | 4190 | 1.46 | 89800 | 0.43 | 8060 | 24800 | 1.4 | – | – | – | – | – | – |
| B3 | – | 288 | 33.7 | 26400 | 0.84 | 4240 | 88 | – | no binding | – | – | – | – | – |
| B4 | – | 2620 | 6.84 | 80600 | 3.41 | 6770 | 22300 | 4.63 | – | – | – | – | – | – |
| B5 | 5.61 | 9710 | 1.41 | 97600 | – | 81 | 41100 | 0.56 | – | no binding | – | – | – | – |
| B6 | – | 337 | 21.8 | 27900 | 0.75 | 4470 | 88 | – | no binding | – | – | – | – | – |
| B7 | – | 227 | – | 35400 | 1.18 | 8270 | 105 | – | no binding | – | – | – | – | – |
| B8 | – | 613 | 8.68 | 36400 | 0.62 | 5070 | 188 | – | – | – | – | – | – | – |
| B9 | – | 263 | 36.4 | 24700 | 0.99 | 4800 | 57 | – | no binding | – | – | – | – | – |
| B10 | – | – | – | – | – | – | – | – | – | – | 0.28 | 25400 | 0.65 | 7460 |

— US20250250357A1 (NANJING ZAIMING PHARMACEUTICAL, published 2025)
